106 substances from the supplement of paper PMC12042874 can be followed below.

± gives the uncertainty stated by the source.

The series in a line: amyloid nucleation score (Sup35N fusion, yeast selection) (log enrichment); library NNK2; higher = more nucleation; inactive = no reads after selection. Summed up:
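The nucleation score is the log enrichment of output over input reads, calculated with DiMSum and centred on the mode score of non-aggregating sequences. Sequences with under 100 input reads were excluded. Reads came from Illumina sequencing of plasmid inserts from psi-negative yeast expressing Sup35N fused to peptides of 20 random codons, induced 24 hours with 100 μM copper sulfate and grown 7 days at 30°C without adenine and uracil.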
As for STVVLSHRCLLSCE, the amyloid nucleation score was -0.656 ± 1.1.

Substance STWVWMSFCVNLLDPHACGS came in with an amyloid nucleation score of 7.542 ± 0.03.

Consider STWWWYLCIQARLMCMRFLA, for which the amyloid nucleation score is -0.357 ± 0.23.

In turn, STYRSASMVQVGRLVHGNQW displayed an amyloid nucleation score of 5.38 ± 0.063.

STYSIIYV returned an amyloid nucleation score of 0.831 ± 0.17.

Turning to SVAWVLLWV, the amyloid nucleation score worked out at 0.636 ± 0.81.

For the substance SVCLSSYFHCKRSVMWFYKV, the amyloid nucleation score was -0.363 ± 0.74.

Substance SVFIGVVPNESQCYV yielded an amyloid nucleation score of 0.069 ± 0.39.

Substance SVFMFCVSEL had an amyloid nucleation score of -0.049 ± 0.63.

SVGGR returned an amyloid nucleation score of -0.288 ± 0.8.

Substance SVIASWKSCLSLLVFQH showed an amyloid nucleation score of -0.695 ± 0.64.

Substance SVKQLTPD gave an amyloid nucleation score of -0.319 ± 0.6.

For SVKWKTRDEKS, the amyloid nucleation score is -0.711 ± 0.54.

Turning to SVLAGDLNLRLVFYCMFMYH, the amyloid nucleation score came to 1.61 ± 0.31.

On to SVLGTKVRVYRSGWTLRIFE, for which the amyloid nucleation score was -0.456 ± 0.37.

Regarding SVLHPLTSKWNGKKWV, the amyloid nucleation score entry was “inactive”.

Substance SVLTLTSIIYLGSCKFLNFM yielded an amyloid nucleation score of 6.241 ± 0.032.

SVNASGT displayed an amyloid nucleation score of -0.114 ± 0.8.

SVNWEDKDLGVGSNLEIASL: the amyloid nucleation score was -0.889 ± 1.

Substance SVPDFDRWAFTGRVQTYADC yielded an amyloid nucleation score of -0.614 ± 0.79.

Consider SVRLNFEFRDYDCRQVLSIF, for which the amyloid nucleation score was -0.825 ± 1.1.

As for SVRVA, the amyloid nucleation score is 1.66 ± 0.26.

As for SVSLNCSPLFFYFRRYKVSR, the amyloid nucleation score amounted to 6.052 ± 0.038.

As for SVSVEYWCSLWDRRDKGSSQ, the amyloid nucleation score was found to be 0.619 ± 0.81.

SVSYTNVLYHIKVDEFFNEC gave an amyloid nucleation score of 1.3 ± 0.25.

SVTVHFENVVDIRYVCVTMG: the amyloid nucleation score was determined as 0.341 ± 0.65.

As to SVVGFTPQKL, the amyloid nucleation score is -0.049 ± 0.34.

For SVYAGVLM, the amyloid nucleation score was -0.555 ± 0.63.

In turn, SVYMPSVCNKLFFRGCGYGF had an amyloid nucleation score of 3.04 ± 0.096.

Regarding SWEKQ, the amyloid nucleation score entry is “inactive”.

In the case of SWLFRYYVERVNDVRG, the amyloid nucleation score turned out to be 0.191 ± 0.65.

On to SWVRVTSPSIATFSATYCVL, for which the amyloid nucleation score turned out to be 0.619 ± 0.81.

Take SWYILILGFRGKIIYPFRLG: the amyloid nucleation score was -1.03 ± 0.76.

The substance SWYVGLCMYVPWYERRANGH gave an amyloid nucleation score of 11.04 ± 0.067.

Turning to SYDDGRFGVGCCFIEGYRI, the amyloid nucleation score is -1.41 ± 1.

In turn, SYDFSSINRDKTSSSRSLPR gave an amyloid nucleation score of -0.474 ± 1.

For the substance SYENTSV, the amyloid nucleation score was determined as 0.376 ± 0.66.

The substance SYFGDFERFSFSCDHER had an amyloid nucleation score of -0.471 ± 0.61.

SYFHRWRATNFRTHKEAC had an amyloid nucleation score of -1.02 ± 0.34.

In turn, SYGNDNDGTWWS had an amyloid nucleation score of 0.676 ± 0.57.

For the substance SYHAYRG, the amyloid nucleation score is -0.064 ± 0.37.

In the case of SYLFIDDTVDCQLKERRYPN, the amyloid nucleation score is -0.763 ± 0.62.

Consider SYNLETFIFLWKESG, for which the amyloid nucleation score result was “inactive”.

SYNTRFIASSCSGSY: the amyloid nucleation score is -1.06 ± 0.76.

SYPYFMLRTTLNTLKTWFWM displayed an amyloid nucleation score of -0.403 ± 1.

Take SYTWFSYIWYSLVFLRD: the amyloid nucleation score was -0.088 ± 0.8.

In turn, SYYFQAFDYKFLSMVIDAYG registered an amyloid nucleation score of 7.085 ± 0.043.

SYYINFISVRILDLNKFNVQ: the amyloid nucleation score came to 5.03 ± 0.11.

Consider SYYTL, for which the amyloid nucleation score entry is “inactive”.

Take SYYVLRASTELYGFHVFFLR: the amyloid nucleation score is -0.017 ± 1.

TAALRVILGCMYNIWQMWHR came in with an amyloid nucleation score of 1.06 ± 0.57.

Substance TALATDTSFRRSRRQTNQIF came in with an amyloid nucleation score of 0.706 ± 0.54.

Take TAMFPHVRYSDTSYPAKRAV: the amyloid nucleation score was -0.947 ± 0.41.

As to TCEYVVN, the amyloid nucleation score was -0.659 ± 0.54.

On to TCFEEFLQKFMYCATFMKKM, for which the amyloid nucleation score is -0.403 ± 0.78.

Substance TCFVC gave an amyloid nucleation score of 5.746 ± 0.052.

In the case of TCIVSRRSCTCNRSQSGYRR, the amyloid nucleation score was found to be 1.08 ± 0.22.

For the substance TCLMVVE, the amyloid nucleation score is 0.539 ± 0.66.

As for TCLTFRFI, the amyloid nucleation score entry was “inactive”.

TCRHRLHVSFVYDVLRQIVT gave an amyloid nucleation score of 0.043 ± 0.21.

TCTNLSCTGWKNGVCVCM: the amyloid nucleation score is 8.536 ± 0.057.

In turn, TCVKASNRG displayed an amyloid nucleation score of -0.608 ± 0.55.

Take TCVLKVFVL: the amyloid nucleation score was -1.43 ± 1.1.

Turning to TCVVSTYLINIQKNVASFER, the amyloid nucleation score is 6.816 ± 0.041.

With TDALANSNRPSKFQVH, the amyloid nucleation score is -0.059 ± 0.37.

For the substance TDECWIGYFNSSAI, the amyloid nucleation score was -0.053 ± 1.

Regarding TDGELDSPQ, the amyloid nucleation score came out at 0.165 ± 0.37.

For TDLCCRLSIQLINHVYHSCL, the amyloid nucleation score was 0.351 ± 0.74.

In the case of TDLSLWNTILRVAG, the amyloid nucleation score stood at 0.05 ± 0.31.

As for TDRLRFIYSGGVEFFVPVLL, the amyloid nucleation score result is “inactive”.

In turn, TDVRGDTSRGLGSFKLFRIM returned an amyloid nucleation score of -0.354 ± 0.76.

For the substance TDWGTLARMGLASLC, the amyloid nucleation score result was “inactive”.

For TDWVW, the amyloid nucleation score was determined as 0.593 ± 0.2.

Consider TDYQSVVDTVG, for which the amyloid nucleation score was found to be 0.019 ± 0.32.

For TEASLMWRYWDGDPWQWSFD, the amyloid nucleation score result was “inactive”.

For TEEWFFCPRLTLKFLKEVHK, the amyloid nucleation score was determined as 4.94 ± 0.092.

TEGYNMCDWCSSSLVKSVRM returned an amyloid nucleation score of -0.223 ± 0.49.

As for TEILILMIGLIAGLYCEIRF, the amyloid nucleation score is -0.231 ± 0.79.

With TELHLTDFWLRIMRQLFRFS, the amyloid nucleation score was found to be 1.61 ± 0.52.

For the substance TFCSPR, the amyloid nucleation score came out at 0.49 ± 0.5.

On to TFELNLLVPAPNCRFHDLRR, for which the amyloid nucleation score came to 1.46 ± 0.22.

In turn, TFFIMEIFDFC yielded an amyloid nucleation score of 1.8 ± 0.15.

TFGRRATDNAASMPVSMRGR yielded an amyloid nucleation score of 0.424 ± 0.64.

In the case of TFILFGRFEQTKVSVW, the amyloid nucleation score is 3.67 ± 0.075.

Consider TFLWLT, for which the amyloid nucleation score was found to be 2.33 ± 0.09.

In turn, TFLYREVPLRRYR registered an amyloid nucleation score of 0.135 ± 0.63.

Consider TFRCVVRPLGMRSVLMAGSG, for which the amyloid nucleation score turned out to be 0.852 ± 0.47.

In turn, TFVRVPFWFRKN registered an amyloid nucleation score of 9.788 ± 0.071.

On to TFWNFGLAVQTARGIWALSW, for which the amyloid nucleation score is 6.57 ± 0.082.

Consider TFYSLGLNISMFSLPGLAGY, for which the amyloid nucleation score came out at 0.683 ± 0.35.

Substance TFYSSWWSNSECYCS displayed an amyloid nucleation score of 2.45 ± 0.1.

TGAIRGGSVQRVHSLINPRM gave an amyloid nucleation score of -0.414 ± 0.55.

Turning to TGCMSMLFKCAGMCQWWSGG, the amyloid nucleation score is 6.71 ± 0.086.

Substance TGDPTLLMAYSRSYVWRSER had an amyloid nucleation score of 1.28 ± 0.3.

The substance TGHKECVW displayed an amyloid nucleation score of 0.762 ± 0.47.

In turn, TGHLEEMYKYDALYSSAKRA displayed an amyloid nucleation score of 1 ± 0.48.

Consider TGLGLIGLHSLVKVSRV, for which the amyloid nucleation score was -0.255 ± 0.65.

With TGLNLFRDSQTGELGGGYTR, the amyloid nucleation score turned out to be 5.495 ± 0.049.

Turning to TGNVCQDEVNAIGRFP, the amyloid nucleation score is -0.864 ± 0.38.

For the substance TGVCPR, the amyloid nucleation score was -0.674 ± 0.5.

With TGYLVWFG, the amyloid nucleation score is 0.951 ± 0.3.

TGYVE gave an amyloid nucleation score of 0.293 ± 0.26.

The substance THIITWSVNFTKGWQCFESQ came in with an amyloid nucleation score of 1.36 ± 0.38.

On to THRTGLDK, for which the amyloid nucleation score was found to be 0.319 ± 0.36.

THVDFLWIVNLGGSHI registered an amyloid nucleation score of 7.519 ± 0.041.

Take TIGFLFLVNWPSWNFLEEVF: the amyloid nucleation score result was “inactive”.
